{"source": "patent US20230322953A1", "about": "(HARBOUR BIOMED SHANGHAI, published 2023)", "binders": {"B1": {"name": "PR004561, PR001046 VH-derived single-domain variant 1046-R2-10H1 (VHH)", "VHH": "EVQLVETGGGLIQPGGSLRLSCAASGFTVSDSYMTWVRQAPGKGLEWVSVIFSGGNTYYADSVKGRFTISRDNAKNTLYLQMNSLRAEDTALYYCARRNYDQTLGTDVFDIWGQGTMVTVSS", "notes": "Tested as VH single domain with Flag and His tags; not shown: Flag and His tags"}, "B2": {"name": "PR004562, PR001046 VH-derived single-domain variant 1046-R2-10H5 (VHH)", "VHH": "B1 VHH with N56K, A60S", "notes": "as for B1"}, "B3": {"name": "PR004563, PR001046 VH-derived single-domain variant 1046-R2-1A1 (VHH)", "VHH": "B1 VHH with S30Y, S32N, N56K, Y59V, L104R", "notes": "as for B1"}, "B4": {"name": "PR004564, PR001046 VH-derived single-domain variant 1046-R2-2D4 (VHH)", "VHH": "B1 VHH with N56R, A60S", "notes": "as for B1"}, "B5": {"name": "PR004565, PR001046 VH-derived single-domain variant 1046-R2-2G4 (VHH)", "VHH": "B1 VHH with S32A, Y59V, A60S, L104I", "notes": "as for B1"}, "B6": {"name": "PR004566, PR001046 VH-derived single-domain variant 1046-R2-4G10 (VHH)", "VHH": "B1 VHH with N56R, A60S, Q102D, L104R", "notes": "as for B1"}, "B7": {"name": "PR004567, PR001046 VH-derived single-domain variant 1046-R2-5E1 (VHH)", "VHH": "B1 VHH with N56K, Y59V, L104R", "notes": "as for B1"}, "B8": {"name": "PR004568, PR001046 VH-derived single-domain variant 1046-R2-5H1 (VHH)", "VHH": "B1 VHH with S32A, N56R, Y59V, Q102D, L104R", "notes": "as for B1"}, "B9": {"name": "PR004569, PR001046 VH-derived single-domain variant 1046-R2-5H2 (VHH)", "VHH": "B1 VHH with N56R, A60S, L104R", "notes": "as for B1"}, "B10": {"name": "PR004570, PR001046 VH-derived single-domain variant 1046-R2-6D6 (VHH)", "VHH": "B1 VHH with S32A, N56R, L104R", "notes": "as for B1"}, "B11": {"name": "PR004571, PR001046 VH-derived single-domain variant 1046-R2-6F1 (VHH)", "VHH": "B1 VHH with N56K, A60S, L104I", "notes": "as for B1"}, "B12": {"name": "PR004572, PR001046 VH-derived single-domain variant 1046-R2-7E7 (VHH)", "VHH": "B1 VHH with N56K, Y59V, Q102D, L104R", "notes": "Tested as VH single domain with Flag and His tags; also called PR001046-R2-7E7; not shown: Flag and His tags"}, "B13": {"name": "PR004573, PR001046 VH-derived single-domain variant 1046-R2-8B1 (VHH)", "VHH": "B1 VHH with N56K, Q102D, L104R", "notes": "as for B1"}, "B14": {"name": "PR004574, PR001046 VH-derived single-domain variant 1046-R2-9E5 (VHH)", "VHH": "B1 VHH with S32A, N56R, A60S, L104R", "notes": "as for B1"}}, "note": "Residue numbers refer to the chain shown, from its start.", "data": [{"molecular_target": "T1, human BCMA (human, UniProt Q02223 1-184)", "T1 construct": "whole, on cells; the cell line is named under assay; also called TNFRSF17; CD269", "T1 sequence (looked up)": "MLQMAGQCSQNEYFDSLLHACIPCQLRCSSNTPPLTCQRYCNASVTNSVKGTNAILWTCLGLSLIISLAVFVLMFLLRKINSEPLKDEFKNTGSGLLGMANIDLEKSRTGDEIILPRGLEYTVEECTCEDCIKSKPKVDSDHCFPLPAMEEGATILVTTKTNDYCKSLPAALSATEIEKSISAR", "experiment": "flow cytometry, NCI-H929 cells, Flag-tagged VH single domain, anti-tag secondary antibody", "units": {"EC50": "nM"}, "procedure": "Specifically, HEK293T/hBCMA cells and HEK293T/cyno BCMA cells were digested and resuspended in a DMEM complete medium. In addition, NCI-H929 cell suspension was collected. The density of each of the three cells was adjusted to 1×10⁶ cells/mL. […] The cells were incubated at 4° C. for 1 h away from light. Thereafter, the cells in each well were rinsed twice with 100 μL of pre-cooled PBS, and centrifuged at 500 g at 4° C. for 5 min, and then the supernatant was discarded. […] The cells in each well were rinsed twice with 100 μL of pre-cooled PBS, and centrifuged at 500 g at 4° C. for 5 min, and then the supernatant was discarded. Finally, the cells in each well were resuspended in 200 μL of pre-cooled PBS. Fluorescence signal values were read using a BD FACS CANTOII flow cytometer or an ACEA NovoCyte flow cytometer, and the data were processed and analyzed using FlowJo v10 (FlowJo, LLC) software. The data were processed and analyzed by plotting using GraphPad Prism 8 software, and binding curves of the antibodies to target cells, EC₅₀ values and other parameters were obtained through four-parameter nonlinear fitting.\nIt is specifically noted that the recombinant variant molecules are VH single-domain antibody molecules with a Flag tag, and a fluorescent secondary antibody against the tag is required in the FACS assay.", "values": [{"binder": "B1", "EC50": 4.38, "Maximum MFI": 1240}, {"binder": "B2", "EC50": 1.24, "Maximum MFI": 1560}, {"binder": "B3", "EC50": 7.96, "Maximum MFI": 1260}, {"binder": "B4", "EC50": 1.34, "Maximum MFI": 1530}, {"binder": "B5", "EC50": 2.42, "Maximum MFI": 1430}, {"binder": "B6", "EC50": 3.17, "Maximum MFI": 1400}, {"binder": "B7", "EC50": 1.72, "Maximum MFI": 1440}, {"binder": "B8", "EC50": 2.85, "Maximum MFI": 1440}, {"binder": "B9", "EC50": 5.87, "Maximum MFI": 1420}, {"binder": "B10", "EC50": 2.15, "Maximum MFI": 1360}, {"binder": "B11", "EC50": 2.86, "Maximum MFI": 1380}, {"binder": "B12", "EC50": 0.54, "Maximum MFI": 1500}, {"binder": "B13", "EC50": 1.72, "Maximum MFI": 1230}, {"binder": "B14", "EC50": 2.9, "Maximum MFI": 1300}]}, {"molecular_target": "T2, biotinylated human BCMA-Fc, Avitag recombinant protein (ACRO Biosystems, #BC7-H82F0) (human, UniProt Q02223 1-54, biotinylated)", "T2 construct": "extracellular domain; Bought protein; also called human BCMA protein; recombinant human BCMA-ECD-Fc; not shown: Fc of the bought fusion protein; Avitag", "T2 sequence (looked up)": "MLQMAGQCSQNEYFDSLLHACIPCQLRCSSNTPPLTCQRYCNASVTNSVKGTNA", "experiment": "BLI (Octet Red96e), biotinylated BCMA-Fc on SA sensor, VH supernatant, 100 nM, single concentration", "units": {"koff": "s⁻¹"}, "values": [{"binder": "B1", "Response": 0.269, "koff": 0.0003}, {"binder": "B2", "Response": 0.535, "koff": 0.000217}, {"binder": "B3", "Response": 0.493, "koff": 0.000259}, {"binder": "B4", "Response": 0.57, "koff": 0.000228}, {"binder": "B5", "Response": 0.557, "koff": 0.000236}, {"binder": "B6", "Response": 0.424, "koff": 0.000286}, {"binder": "B7", "Response": 0.578, "koff": 0.000201}, {"binder": "B8", "Response": 0.733, "koff": 0.00023}, {"binder": "B9", "Response": 0.73, "koff": 0.000254}, {"binder": "B10", "Response": 0.437, "koff": 0.000234}, {"binder": "B11", "Response": 0.704, "koff": 0.000219}, {"binder": "B12", "Response": 0.29, "koff": 0.000236}, {"binder": "B13", "Response": 0.268, "koff": 0.000282}, {"binder": "B14", "Response": 0.29, "koff": 0.000314}]}, {"molecular_target": "T2, biotinylated human BCMA-Fc, Avitag …", "experiment": "BLI, dissociation rate relative to the original molecule PR001046 VH", "procedure": "In this example, the binding kinetics between the anti-BCMA antibody and the BCMA antigenic protein were analyzed by the Biolayer Interferometry (BLI) technique using an Octet Red96e molecular interaction analyzer (ForteBio, Octet Red96e).", "values": [{"binder": "B1", "Kdis fold": 0.43}, {"binder": "B2", "Kdis fold": 0.31}, {"binder": "B3", "Kdis fold": 0.37}, {"binder": "B4", "Kdis fold": 0.33}, {"binder": "B5", "Kdis fold": 0.34}, {"binder": "B6", "Kdis fold": 0.41}, {"binder": "B7", "Kdis fold": 0.29}, {"binder": "B8", "Kdis fold": 0.33}, {"binder": "B9", "Kdis fold": 0.36}, {"binder": "B10", "Kdis fold": 0.34}, {"binder": "B11", "Kdis fold": 0.31}, {"binder": "B12", "Kdis fold": 0.34}, {"binder": "B13", "Kdis fold": 0.41}, {"binder": "B14", "Kdis fold": 0.45}]}]}
